{"source": "paper PMC2853223", "about": "(ACS chemical biology, 2009)", "binders": {"B1": {"name": "PikAIV KSdd residues 1-37 (the PikAIV part of P3P4dock) (domain or fragment, UniProt Q9ZGI2 1-37, looked up)", "chain": "MTSSNEQLVDALRASLKENEELRKESRRRADRRQEPM"}}, "key": {"crystal structure": {"molecular_target": "the molecule itself", "experiment": "crystal structure"}, "[1]": {"molecular_target": "T1, PikAIII ACPdd (N-terminally His-tagged discrete C-terminal docking domain of PikAIII) (UniProt Q9ZGI3 1479-1562)", "T1 sequence (looked up)": "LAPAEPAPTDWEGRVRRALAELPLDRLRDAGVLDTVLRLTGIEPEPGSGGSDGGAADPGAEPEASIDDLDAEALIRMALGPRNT", "experiment": "SPR"}, "[2]": {"molecular_target": "B1", "experiment": "crystal structure"}, "PikAIV full module": {"molecular_target": "PikAIV full module (post-translational modification of its ACP domain (grown in BAP1 E. coli cells))", "experiment": "fluorescence polarisation"}}}
{"binder": "P3P4dock (amino acids 1534-1562 of PikAIII ACPdd fused to amino acids 1-37 of the KSdd of PikAIV) (other) SNADPGAEPEASIDDLDAEALIRMALGPRNTMTSSNEQLVDALRASLKENEELRKESRRRADRRQEPM", "values": [{"measurement": "binding result", "setting": "crystal structure", "result": "binds"}]}
{"binder": "MTSSNEQLVDALRASLKENEELRKESRRRADRRQEPM (domain or fragment, UniProt Q9ZGI2 1-37, looked up)", "note": "[PikAIV KSdd (discrete N-terminal docking domain of PikAIV, tagless)]", "values": [{"measurement": "Kd", "setting": "[1]", "result": "73 ± 43", "unit": "µM"}, {"measurement": "koff", "setting": "[1]", "result": "0.21 ± 0.03", "unit": "s⁻¹"}, {"measurement": "kon", "setting": "[1]", "result": "3000 ± 1800", "unit": "M⁻¹ s⁻¹"}]}
{"binder": "B1", "values": [{"measurement": "binding result", "setting": "crystal structure", "result": "binds"}]}
{"binder": "ADPGAEPEASIDDLDAEALIRMALGPRNT (domain or fragment, UniProt Q9ZGI3 1534-1562, looked up)", "note": "[PikAIII ACPdd residues 1534-1562 (the PikAIII part of P3P4dock)]", "values": [{"measurement": "binding result", "setting": "[2]", "result": "binds"}]}
{"binder": "PikAIII ACPdd-FL (PikAIII ACPdd with an added C-terminal cysteine labelled with BODIPY-FL) (domain or fragment, BODIPY-FL (iodoacetamide) on the added C-terminal cysteine) LAPAEPAPTDWEGRVRRALAELPLDRLRDAGVLDTVLRLTGIEPEPGSGGSDGGAADPGAEPEASIDDLDAEALIRMALGPRNTC", "values": [{"measurement": "Kd", "setting": "PikAIV full module", "result": "5 ± 1", "unit": "µM"}]}
